Results taken from patent US20020182172A1, “Water-soluble polymer conjugates of triazine derivatives” (Shearwater Corporation, priority 2000, published 2002).

Assay: Stability study in D2O (formaldehyde release monitored by NMR; MALDI-TOF of hydrolyzed product)
Procedure: Compound III, V, and XIV (6 mg) were separately dissolved in 0.75 ml of D2O and stored at 37° C. The methylene peak disappearance as well as methyl peak shift were monitored by 300 MHz NMR over time. The half-life of the formaldehyde release reaction was monitored using first order kinetics.

Substance | half-life (t1/2) of the formaldehyde release reaction [h] | dimerization (MALDI-TOF spectrum of hydrolyzed compound) (after hydrolysis in D2O at 37° C.)
2-mPEGyloxy5k-4,6-di-(N-methyl-N-hydroxymethylamino)-1,3,5-triazine [Compound III] | 81 | 
2-mPEGyloxy350-4,6-di-(N-methyl-N-hydroxymethylamino)-1,3,5-triazine [V] | 81 | no detectable dimerization
